From patent US6962795 (CORVAS INTERNATIONAL, dated 2005) come the findings set out here.

The target of assay [1] is T1, Mac-1 integrin complex (CD11b/CD18) (human, UniProt P11215 17-1152; P05107 23-769). Briefly: competition with biotinylated NIF-1FL on LM2-captured Mac-1, Pichia supernatant.
Assay [2] has as its target T1, Mac-1 integrin complex (CD11b/CD18). Kind of assay: competition ELISA with biotinylated mature NIF-1FL on LM2-captured Mac-1 (FIG. 18).
Assay [3] shares this target. Briefly: ELISA on LM2-captured Mac-1, 3D2-HRP detection, Pichia supernatant. For orientation: In an ELISA, binding on a coated surface is turned into a signal by an enzyme label.
The target is the same in assay [4]. Briefly: soluble NIF-1FL pre-incubated in varying amounts on LM2/Mac-1-coated wells before the phages.
For assay [5] the target is unchanged. Briefly: panning of a 1:1 mix of pAN-NIF-1FL and fd-tet phage on a Mac-1-coated well, acid elution, colony counts.

B1: recombinant AcaNIF9 produced in Pichia pastoris (ligand)
chain: NEHDPTCPQNEVEMEKGFDDAMRLKFLALHNGYRSKLALGHVSITEESEDYDLYDLLYAPTASKMRYLEYDCEAEKSAYESAKKCQTTAFSSTKYDENLQVIEDPRDINHAALKAIISWATEAFNLNKTGEGVVYRSILNISNFANLAWDTREKVGCAVVKCPSGNTHVVCHYPKIVKKEGKPIYSIGKPCRGCNDYASKFFCHADEGVCIIASRDLDIYGRKKYFYPFREL
notes: Only partially purified when tested
With B1, the binding result in assay [1] is “binds”.

B2: recombinant AcaNIF4 produced in Pichia pastoris (ligand)
chain: NEHKPMCERNETEMPGFNDSMRLQFLAMHNGYRSLLALGHVGISKQPIDDDYYDDDYYYFYSSYAPRASKMRYLEYDCEAEKSAYVSASNCSNISSPPEGYDENKYIFENSNNISEAALKAMISWAKEAFNLNKTEEGEGVLYRSNHDISNFANLAWDTREKFGCAVVNCPLGEIDTTSNRDGETYATAIHVVCHYPKILEKEEKQIYEVGKPCDRCSEYSKNANNITSPNWVCNDDDGVCFIGSKDDYISKEFYRFREL
notes: also called mature AcaNIF4
With B2, the binding result in assay [2] is listed as “binds”.

B3: recombinant AcaNIF6 produced in Pichia pastoris (ligand)
chain: NEHKPMCQQNETEMPGFNDLMRLQFLAMHNGYRSKLALGHISITDESESDYDYDYGFLPDFAPSASKMRYLEYDCEAERSAYTSASDCSDSSSPPEGYDENKYIFENSNNISEAALKAMISWAKEAFNLNKTEKGVLYQPNHDISNFANLAWDTREKFGCAVVNCPLGEIDADIYDEETYATTIHVVCHYPKINKTEGEPIYKVGTPCDDCSEYTKKADNTTSADPVCIPDDGVCFIGSKADYDSKEFYRFREL
notes: also called mature AcaNIF6
Regarding B3, the binding result in assay [3] is “binds”.

B4: recombinant mature NIF-1FL produced in Pichia pastoris (ligand)
chain: NEHNLRCPQNGTEMPGFNDSIRLQFLAMHNGYRSKLALGHISITEESESDDDDDFGFLPDFAPRASKMRYLEYDCEAEKSAYMSARNCSDSSSPPEGYDENKYIFENSNNISEAALKAMISWAKEAFNLNKTKEGEGVLYRSNHDISNFANLAWDAREKFGCAVVNCPLGEIDDETNHDGETYATTIHVVCHYPKINKTEGQPIYKVGTPCDDCSEYTKKADNTTSADPVCIPDDGVCFIGSKADYDSKEFYRFREL
modifications: N-glycosylated (Pichia); biotinylated on oxidised carbohydrate where used as labelled tracer
notes: also called rNIF; recombinant NIF
As for B4, the binding result in assay [4] is recorded as “binds”.

B5: phages displaying mature NIF-1FL (NIF-1FL-pgIII fusion from pAN-NIF-1FL) (other)
chain: NEHNLRCPQNGTEMPGFNDSIRLQFLAMHNGYRSKLALGHISITEESESDDDDDFGFLPDFAPRASKMRYLEYDCEAEKSAYMSARNCSDSSSPPEGYDENKYIFENSNNISEAALKAMISWAKEAFNLNKTKEGEGVLYRSNHDISNFANLAWDAREKFGCAVVNCPLGEIDDETNHDGETYATTIHVVCHYPKINKTEGQPIYKVGTPCDDCSEYTKKADNTTSADPVCIPDDGVCFIGSKADYDSKEFYRFREL
notes: An extra Ala codon stands between the pelB signal and NIF-1FL; also called NIF-phage; NIF-displaying phages; not shown: linker with a NotI site and a suppressed TAG amber codon between NIF-1FL and pgIII; product of filamentous phage M13 gene III (pgIII), fused at the C-terminus of NIF-1FL
For the molecule B5, the “fold enrichment over non-displaying fd-tet phage” value in assay [5] came to 30 fold.

B6: recombinant NIF-1FL/Δh, Gl1-7 produced in Pichia pastoris (ligand)
chain: NEHNLRCPQQGTEMPGFQDSIRLQFLAMHNGYRSKLALGHISITEESESDDDDDFGFLPDFAPRASKMRYLEYDCEAEKSAYMSARQCSDSSSPPEGYDENKYIFENSNQISEAALKAMISWAKEAFNLQKTKEGEGVLYRSNHDISNFANLAWDAREKFGCAVVNCPLGEIDDETNHDGETYATTIHVVCHYPKIQKTEGQPIYKVGTPCDDCSEYTKKADQTTSADPVCIPDDGVCFIGSKADYDSKEFYRFREL
notes: Mature NIF-1FL with Asn to Gln at positions 10, 18, 87, 110, 130, 197 and 223; also called hNIF1/Δh, Gl1-7; AcaNIF1/Δh, Gl1-7
B6: in assay [3], the binding result is recorded as “binds”.

B7: recombinant NIF-1FL/ΔGl1-5 produced in Pichia pastoris (ligand)
chain: NEHNLRCPQQGTEMPGFQDSIRLQFLAMHNGYRSKLALGHISITEESESDDDDDFGFLPDFAPRASKMRYLEYDCEAEKSAYMSARQCSDSSSPPEGYDENKYIFENSNQISEAALKAMISWAKEAFNLQKTKEGEGVLYRSNHDISNFANLAWDAREKFGCAVVNCPLGEIDDETNHDGETYATTIHVVCHYPKINKTEGQPIYKVGTPCDDCSEYTKKADNTTSADPVCIPDDGVCFIGSKADYDSKEFYRFREL
notes: Mature NIF-1FL with Asn to Gln at positions 10, 18, 87, 110 and 130; also called hNIF1/ΔGl1-5; AcaNIF1/ΔGl1-5
For the molecule B7, the binding result in assay [3] is recorded as “binds”.

B8: AceNIF3 produced in Pichia pastoris (pYAM7SP-AceNIF3) (ligand)
chain: NEHEPTCKQNNGSMTNELRRRFLRLHNGYRSILALGHVNISEESNETFLYAHRASRMRILDYDCDAEGSAYESAIKQCSSNKSSSAEYDENVYVIDNTYEDEVDPALKAISSWTSQAFNLTHAEEGIPYQWNDSVSDFANVAWDAREKLGCAVVTCDQGNTTHVVCHYGPKAANKTEPIYKVGVPCSNCTEYTRGDEEKVFCHADEGVCVINLRDLNSHLNTSLRYPPI
notes: Carries a hybrid N-terminus N-E-H-E-P-T-C-K-Q (first three residues from AcaNIF9); Tested as crude Pichia cell supernatant
On to B8, for which, in assay [1], the binding result was “binds”.
